Reference: the Human Domainome abundance scans (Beltran et al. 2025)
± gives the uncertainty stated by the source.

B1: GAS2-like protein 1, residues 209 to 276; numbered along this chain, Q99501 (parent)
chain: DELVREILGRCTCPDQFPMIKVSEGKYRVGDSSLLIFVRVLRSHVMVRVGGGWDTLEHYLDKHDPCRC

Variants of: B1
Assay: abundance fitness (aPCA) (normalised: wild type 0, dead -1); higher = more abundant; growth selection in yeast, the domain comes from the species named
Conditions: Homo sapiens

Question: With DELVREILGRCTCPDQFWMIKVSEGKYRVGDSSLLIFVRVLRSHVMVRVGGGWDTLEHYLDKHDPCRC [P18W] as the variant, how does the abundance fitness read?
Answer: Its abundance fitness is -0.809 ± 0.12.

Question: With DELVREILGRCTCPDQFHMIKVSEGKYRVGDSSLLIFVRVLRSHVMVRVGGGWDTLEHYLDKHDPCRC [P18H] as the variant, how does the abundance fitness read?
Answer: Its abundance fitness is -0.222 ± 0.09.

Question: With DELVREILGRCTCPDQFRMIKVSEGKYRVGDSSLLIFVRVLRSHVMVRVGGGWDTLEHYLDKHDPCRC [P18R] as the variant, how does the abundance fitness read?
Answer: Its abundance fitness is -0.012 ± 0.033.

Question: Which abundance fitness does the source give for DELVREILGRCTCPDQFLMIKVSEGKYRVGDSSLLIFVRVLRSHVMVRVGGGWDTLEHYLDKHDPCRC [P18L] here?
Answer: The abundance fitness was -0.471 ± 0.054.

Question: For DELVREILGRCTCPDQFKMIKVSEGKYRVGDSSLLIFVRVLRSHVMVRVGGGWDTLEHYLDKHDPCRC [P18K], which abundance fitness is on record?
Answer: The abundance fitness was 0.026 ± 0.063.

Question: For DELVREILGRCTCPDQFFMIKVSEGKYRVGDSSLLIFVRVLRSHVMVRVGGGWDTLEHYLDKHDPCRC [P18F], which abundance fitness is on record?
Answer: The abundance fitness was -0.645 ± 0.16.

Question: With DELVREILGRCTCPDQFNMIKVSEGKYRVGDSSLLIFVRVLRSHVMVRVGGGWDTLEHYLDKHDPCRC [P18N] as the variant, how does the abundance fitness read?
Answer: The abundance fitness was -0.15 ± 0.079.

Question: For DELVREILGRCTCPDQFQMIKVSEGKYRVGDSSLLIFVRVLRSHVMVRVGGGWDTLEHYLDKHDPCRC [P18Q], which abundance fitness is on record?
Answer: Its abundance fitness is 0.011 ± 0.072.

Question: With DELVREILGRCTCPDQFCMIKVSEGKYRVGDSSLLIFVRVLRSHVMVRVGGGWDTLEHYLDKHDPCRC [P18C] as the variant, how does the abundance fitness read?
Answer: Its abundance fitness is -0.512 ± 0.082.

Question: Which abundance fitness does the source give for DELVREILGRCTCPDQFPNIKVSEGKYRVGDSSLLIFVRVLRSHVMVRVGGGWDTLEHYLDKHDPCRC [M19N] here?
Answer: Its abundance fitness is -0.74 ± 0.3.

Question: With DELVREILGRCTCPDQFPDIKVSEGKYRVGDSSLLIFVRVLRSHVMVRVGGGWDTLEHYLDKHDPCRC [M19D] as the variant, how does the abundance fitness read?
Answer: The abundance fitness was -1.18 ± 0.33.

Question: With DELVREILGRCTCPDQFPCIKVSEGKYRVGDSSLLIFVRVLRSHVMVRVGGGWDTLEHYLDKHDPCRC [M19C] as the variant, how does the abundance fitness read?
Answer: Its abundance fitness is -0.664 ± 0.24.

Question: For DELVREILGRCTCPDQFPTIKVSEGKYRVGDSSLLIFVRVLRSHVMVRVGGGWDTLEHYLDKHDPCRC [M19T], which abundance fitness is on record?
Answer: Its abundance fitness is -0.96 ± 0.17.

Question: With DELVREILGRCTCPDQFPKIKVSEGKYRVGDSSLLIFVRVLRSHVMVRVGGGWDTLEHYLDKHDPCRC [M19K] as the variant, how does the abundance fitness read?
Answer: Its abundance fitness is -0.527 ± 0.27.

Question: For DELVREILGRCTCPDQFPLIKVSEGKYRVGDSSLLIFVRVLRSHVMVRVGGGWDTLEHYLDKHDPCRC [M19L], which abundance fitness is on record?
Answer: Its abundance fitness is -0.011 ± 0.044.

Question: Which abundance fitness does the source give for DELVREILGRCTCPDQFPQIKVSEGKYRVGDSSLLIFVRVLRSHVMVRVGGGWDTLEHYLDKHDPCRC [M19Q] here?
Answer: The abundance fitness was -0.961 ± 0.25.

Question: With DELVREILGRCTCPDQFPHIKVSEGKYRVGDSSLLIFVRVLRSHVMVRVGGGWDTLEHYLDKHDPCRC [M19H] as the variant, how does the abundance fitness read?
Answer: The abundance fitness was -0.429 ± 0.13.

Question: With DELVREILGRCTCPDQFPWIKVSEGKYRVGDSSLLIFVRVLRSHVMVRVGGGWDTLEHYLDKHDPCRC [M19W] as the variant, how does the abundance fitness read?
Answer: The abundance fitness was -0.121 ± 0.079.

Question: With DELVREILGRCTCPDQFPEIKVSEGKYRVGDSSLLIFVRVLRSHVMVRVGGGWDTLEHYLDKHDPCRC [M19E] as the variant, how does the abundance fitness read?
Answer: The abundance fitness was -1.02 ± 0.36.

Question: For DELVREILGRCTCPDQFPAIKVSEGKYRVGDSSLLIFVRVLRSHVMVRVGGGWDTLEHYLDKHDPCRC [M19A], which abundance fitness is on record?
Answer: Its abundance fitness is -0.539 ± 0.061.

Question: Which abundance fitness does the source give for DELVREILGRCTCPDQFPRIKVSEGKYRVGDSSLLIFVRVLRSHVMVRVGGGWDTLEHYLDKHDPCRC [M19R] here?
Answer: The abundance fitness was -0.516 ± 0.081.

Question: With DELVREILGRCTCPDQFPGIKVSEGKYRVGDSSLLIFVRVLRSHVMVRVGGGWDTLEHYLDKHDPCRC [M19G] as the variant, how does the abundance fitness read?
Answer: Its abundance fitness is -0.845 ± 0.17.

Question: Which abundance fitness does the source give for DELVREILGRCTCPDQFPFIKVSEGKYRVGDSSLLIFVRVLRSHVMVRVGGGWDTLEHYLDKHDPCRC [M19F] here?
Answer: The abundance fitness was 0.171 ± 0.071.

Question: For DELVREILGRCTCPDQFPPIKVSEGKYRVGDSSLLIFVRVLRSHVMVRVGGGWDTLEHYLDKHDPCRC [M19P], which abundance fitness is on record?
Answer: Its abundance fitness is -1.05 ± 0.26.

Question: With DELVREILGRCTCPDQFPSIKVSEGKYRVGDSSLLIFVRVLRSHVMVRVGGGWDTLEHYLDKHDPCRC [M19S] as the variant, how does the abundance fitness read?
Answer: Its abundance fitness is -0.895 ± 0.13.

Question: For DELVREILGRCTCPDQFPIIKVSEGKYRVGDSSLLIFVRVLRSHVMVRVGGGWDTLEHYLDKHDPCRC [M19I], which abundance fitness is on record?
Answer: The abundance fitness was -0.345 ± 0.083.

Question: For DELVREILGRCTCPDQCPMIKVSEGKYRVGDSSLLIFVRVLRSHVMVRVGGGWDTLEHYLDKHDPCRC [F17C], which abundance fitness is on record?
Answer: Its abundance fitness is -1 ± 0.23.

Question: Which abundance fitness does the source give for DELVREILGRCTCPDQIPMIKVSEGKYRVGDSSLLIFVRVLRSHVMVRVGGGWDTLEHYLDKHDPCRC [F17I] here?
Answer: Its abundance fitness is -0.846 ± 0.19.

Question: With DELVREILGRCTCPDQAPMIKVSEGKYRVGDSSLLIFVRVLRSHVMVRVGGGWDTLEHYLDKHDPCRC [F17A] as the variant, how does the abundance fitness read?
Answer: Its abundance fitness is -0.955 ± 0.15.

Question: Which abundance fitness does the source give for DELVREILGRCTCPDQGPMIKVSEGKYRVGDSSLLIFVRVLRSHVMVRVGGGWDTLEHYLDKHDPCRC [F17G] here?
Answer: The abundance fitness was -0.743 ± 0.08.

Question: Which abundance fitness does the source give for DELVREILGRCTCPDQLPMIKVSEGKYRVGDSSLLIFVRVLRSHVMVRVGGGWDTLEHYLDKHDPCRC [F17L] here?
Answer: Its abundance fitness is -0.667 ± 0.049.

Question: With DELVREILGRCTCPDQMPMIKVSEGKYRVGDSSLLIFVRVLRSHVMVRVGGGWDTLEHYLDKHDPCRC [F17M] as the variant, how does the abundance fitness read?
Answer: Its abundance fitness is -0.777 ± 0.16.

Question: With DELVREILGRCTCPDQTPMIKVSEGKYRVGDSSLLIFVRVLRSHVMVRVGGGWDTLEHYLDKHDPCRC [F17T] as the variant, how does the abundance fitness read?
Answer: The abundance fitness was -0.858 ± 0.11.

Question: With DELVREILGRCTCPDQKPMIKVSEGKYRVGDSSLLIFVRVLRSHVMVRVGGGWDTLEHYLDKHDPCRC [F17K] as the variant, how does the abundance fitness read?
Answer: The abundance fitness was -0.831 ± 0.13.

Question: For DELVREILGRCTCPDQQPMIKVSEGKYRVGDSSLLIFVRVLRSHVMVRVGGGWDTLEHYLDKHDPCRC [F17Q], which abundance fitness is on record?
Answer: The abundance fitness was -0.88 ± 0.18.

Question: For DELVREILGRCTCPDQYPMIKVSEGKYRVGDSSLLIFVRVLRSHVMVRVGGGWDTLEHYLDKHDPCRC [F17Y], which abundance fitness is on record?
Answer: The abundance fitness was 0.098 ± 0.088.

Question: With DELVREILGRCTCPDQRPMIKVSEGKYRVGDSSLLIFVRVLRSHVMVRVGGGWDTLEHYLDKHDPCRC [F17R] as the variant, how does the abundance fitness read?
Answer: The abundance fitness was -0.865 ± 0.1.

Question: For DELVREILGRCTCPDQVPMIKVSEGKYRVGDSSLLIFVRVLRSHVMVRVGGGWDTLEHYLDKHDPCRC [F17V], which abundance fitness is on record?
Answer: The abundance fitness was -0.768 ± 0.082.

Question: For DELVREILGRCTCPDQSPMIKVSEGKYRVGDSSLLIFVRVLRSHVMVRVGGGWDTLEHYLDKHDPCRC [F17S], which abundance fitness is on record?
Answer: Its abundance fitness is -0.925 ± 0.12.

Question: Which abundance fitness does the source give for DELVREILGRCTCPDQWPMIKVSEGKYRVGDSSLLIFVRVLRSHVMVRVGGGWDTLEHYLDKHDPCRC [F17W] here?
Answer: The abundance fitness was -0.741 ± 0.096.
